Patent US20250163127A1 (published 2025)

T1: TIGIT (human, UniProt Q495A1)
T1 sequence: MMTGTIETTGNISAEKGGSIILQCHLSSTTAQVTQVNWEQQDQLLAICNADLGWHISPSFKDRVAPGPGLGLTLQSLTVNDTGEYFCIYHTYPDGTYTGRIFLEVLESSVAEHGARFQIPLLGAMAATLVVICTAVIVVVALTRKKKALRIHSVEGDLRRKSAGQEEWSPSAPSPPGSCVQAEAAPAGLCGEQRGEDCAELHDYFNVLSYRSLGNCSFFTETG

T2: human CD86 (human)
T2 chain: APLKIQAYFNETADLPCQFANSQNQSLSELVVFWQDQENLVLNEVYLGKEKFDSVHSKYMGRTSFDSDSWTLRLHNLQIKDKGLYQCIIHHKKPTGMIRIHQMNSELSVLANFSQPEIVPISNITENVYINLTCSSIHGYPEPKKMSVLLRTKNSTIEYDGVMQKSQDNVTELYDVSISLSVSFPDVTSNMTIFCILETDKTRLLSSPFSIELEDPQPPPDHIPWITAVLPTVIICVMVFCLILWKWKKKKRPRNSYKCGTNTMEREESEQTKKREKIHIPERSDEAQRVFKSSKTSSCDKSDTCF

B1: CD58 3650-PD-L1 303-PD-L1 303-CD58 3650 (other)
chain: SQQIYGVVYGNVTFHVPSNVPLKEVLWKKQKDKVAELENSEFRAFSSFKNRVYLDTVSGSLTIYNLTSSDEDEYEMESPNITDTMKFFLYVLESGGGGSGGGGSGGGGSFTVTVPKDLYVVEYGSNMTIECKFPVEKQLDLAALIVYWEMEGKDIIQFVHGEEDQKAQHSSYRQRARLLKDQLSLGNAALQITDVKLQDAGVYRCMISYGGGADYKRITVKVNAGGGGSGGGGSGGGGSFTVTVPKDLYVVEYGSNMTIECKFPVEKQLDLAALIVYWEMEGKDIIQFVHGEEDQKAQHSSYRQRARLLKDQLSLGNAALQITDVKLQDAGVYRCMISYGGGADYKRITVKVNAGSGGSGGGGSGGGGSSQQIYGVVYGNVTFHVPSNVPLKEVLWKKQKDKVAELENSEFRAFSSFKNRVYLDTVSGSLTIYNLTSSDEDEYEMESPNITDTMKFFLYVLESGSGGGGSDYKDDDDKHHHHHH
B2: PD-L1 303-PD-L1 303-CD58 3650-CD58 3650 (other)
chain: FTVTVPKDLYVVEYGSNMTIECKFPVEKQLDLAALIVYWEMEGKDIIQFVHGEEDQKAQHSSYRQRARLLKDQLSLGNAALQITDVKLQDAGVYRCMISYGGGADYKRITVKVNAGGGGSGGGGSGGGGSFTVTVPKDLYVVEYGSNMTIECKFPVEKQLDLAALIVYWEMEGKDIIQFVHGEEDQKAQHSSYRQRARLLKDQLSLGNAALQITDVKLQDAGVYRCMISYGGGADYKRITVKVNAGGGGSGGGGSGGGGSSQQIYGVVYGNVTFHVPSNVPLKEVLWKKQKDKVAELENSEFRAFSSFKNRVYLDTVSGSLTIYNLTSSDEDEYEMESPNITDTMKFFLYVLESGSGGSGGGGSGGGGSSQQIYGVVYGNVTFHVPSNVPLKEVLWKKQKDKVAELENSEFRAFSSFKNRVYLDTVSGSLTIYNLTSSDEDEYEMESPNITDTMKFFLYVLESGSGGGGSDYKDDDDKHHHHHH
B3: PD-L1 303-CD58 3650-Fc (Fc fusion)
chain: FTVTVPKDLYVVEYGSNMTIECKFPVEKQLDLAALIVYWEMEGKDIIQFVHGEEDQKAQHSSYRQRARLLKDQLSLGNAALQITDVKLQDAGVYRCMISYGGGADYKRITVKVNAGGGGSGGGGSGGGGSSQQIYGVVYGNVTFHVPSNVPLKEVLWKKQKDKVAELENSEFRAFSSFKNRVYLDTVSGSLTIYNLTSSDEDEYEMESPNITDTMKFFLYVLESGSGGGGSEPKSSDKTHTCPPCPAPEAEGAPSVFLFPPKPKDTLMISRTPEVTCVVVDVSHEDPEVKFNWYVDGVEVHNAKTKPREEQYNSTYRVVSVLTVLHQDWLNGKEYKCKVSNKALPAPIEKTISKAKGQPREPQVYTLPPSRDELTKNQVSLTCLVKGFYPSDIAVEWESNGQPENNYKTTPPVLDSDGSFFLYSKLTVDKSRWQQGNVFSCSVMHEALHNHYTQKSLSLSPG
B4: CD58 3650-CD58 3650-PD-L1 303-PD-L1 303 (other)
chain: SQQIYGVVYGNVTFHVPSNVPLKEVLWKKQKDKVAELENSEFRAFSSFKNRVYLDTVSGSLTIYNLTSSDEDEYEMESPNITDTMKFFLYVLESGGGGSGGGGSGGGGSSQQIYGVVYGNVTFHVPSNVPLKEVLWKKQKDKVAELENSEFRAFSSFKNRVYLDTVSGSLTIYNLTSSDEDEYEMESPNITDTMKFFLYVLESGGGGSGGGGSGGGGSFTVTVPKDLYVVEYGSNMTIECKFPVEKQLDLAALIVYWEMEGKDIIQFVHGEEDQKAQHSSYRQRARLLKDQLSLGNAALQITDVKLQDAGVYRCMISYGGGADYKRITVKVNAGSGGSGGGGSGGGGSFTVTVPKDLYVVEYGSNMTIECKFPVEKQLDLAALIVYWEMEGKDIIQFVHGEEDQKAQHSSYRQRARLLKDQLSLGNAALQITDVKLQDAGVYRCMISYGGGADYKRITVKVNAGSGGGGSDYKDDDDKHHHHHH
B5: PD-L1 303-CD155 665-CTLA-4 3037-Fc (Fc fusion)
chain: FTVTVPKDLYVVEYGSNMTIECKFPVEKQLDLAALIVYWEMEGKDIIQFVHGEEDQKAQHSSYRQRARLLKDQLSLGNAALQITDVKLQDAGVYRCMISYGGGADYKRITVKVNAGGGGSGGGGSGGGGSWPPPGTGDVVVQAPTQVSGFLGDSVTLPCYLQVPNMEVTHVSQLTWARHGESGSMAVFHQTQGPWYAESKRLEFVAARLGAELRNASLRVFGLRAEDEGNYTCQFVTFPQRSRSVDIWLRVLGGGGSGGGGSGGGGSKAMHVAQPAVVFASSHGIASFVCEYASPWKATEVRVTVLRQADSQVTEVCAATYMTGNELTFLDDSICTGTSSGNQVNLTIQGLRAMDTGLYICKVEQMYPPPYLLGIGNGTQIYVIDPEPCPDSDGSGGGGSEPKSSDKTHTCPPCPAPEAEGAPSVFLFPPKPKDTLMISRTPEVTCVVVDVSHEDPEVKFNWYVDGVEVHNAKTKPREEQYNSTYRVVSVLTVLHQDWLNGKEYKCKVSNKALPAPIEKTISKAKGQPREPQVYTLPPSRDELTKNQVSLTCLVKGFYPSDIAVEWESNGQPENNYKTTPPVLDSDGSFFLYSKLTVDKSRWQQGNVFSCSVMHEALHNHYTQKSLSLSPG
B6: CD58 3650-PD-L1 303-Fc (Fc fusion)
chain: SQQIYGVVYGNVTFHVPSNVPLKEVLWKKQKDKVAELENSEFRAFSSFKNRVYLDTVSGSLTIYNLTSSDEDEYEMESPNITDTMKFFLYVLESGGGGSGGGGSGGGGSFTVTVPKDLYVVEYGSNMTIECKFPVEKQLDLAALIVYWEMEGKDIIQFVHGEEDQKAQHSSYRQRARLLKDQLSLGNAALQITDVKLQDAGVYRCMISYGGGADYKRITVKVNAGSGGGGSEPKSSDKTHTCPPCPAPEAEGAPSVFLFPPKPKDTLMISRTPEVTCVVVDVSHEDPEVKFNWYVDGVEVHNAKTKPREEQYNSTYRVVSVLTVLHQDWLNGKEYKCKVSNKALPAPIEKTISKAKGQPREPQVYTLPPSRDELTKNQVSLTCLVKGFYPSDIAVEWESNGQPENNYKTTPPVLDSDGSFFLYSKLTVDKSRWQQGNVFSCSVMHEALHNHYTQKSLSLSPG
B7: CD 155 665 G4S FLAGHis (ligand)
chain: WPPPGTGDVVVQAPTQVSGFLGDSVTLPCYLQVPNMEVTHVSQLTWARHGESGSMAVFHQTQGPWYAESKRLEFVAARLGAELRNASLRVFGLRAEDEGNYTCQFVTFPQRSRSVDIWLRVLGGGGSDYKDDDDKHHHHHH
B8: CD155 665-CD58 3650-Fc (Fc fusion)
chain: WPPPGTGDVVVQAPTQVSGFLGDSVTLPCYLQVPNMEVTHVSQLTWARHGESGSMAVFHQTQGPWYAESKRLEFVAARLGAELRNASLRVFGLRAEDEGNYTCQFVTFPQRSRSVDIWLRVLGGGGSGGGGSGGGGSSQQIYGVVYGNVTFHVPSNVPLKEVLWKKQKDKVAELENSEFRAFSSFKNRVYLDTVSGSLTIYNLTSSDEDEYEMESPNITDTMKFFLYVLESGSGGGGSEPKSSDKTHTCPPCPAPEAEGAPSVFLFPPKPKDTLMISRTPEVTCVVVDVSHEDPEVKFNWYVDGVEVHNAKTKPREEQYNSTYRVVSVLTVLHQDWLNGKEYKCKVSNKALPAPIEKTISKAKGQPREPQVYTLPPSRDELTKNQVSLTCLVKGFYPSDIAVEWESNGQPENNYKTTPPVLDSDGSFFLYSKLTVDKSRWQQGNVFSCSVMHEALHNHYTQKSLSLSPG
B9: CD155 665-CTLA-4 3037-Fc (Fc fusion)
chain: WPPPGTGDVVVQAPTQVSGFLGDSVTLPCYLQVPNMEVTHVSQLTWARHGESGSMAVFHQTQGPWYAESKRLEFVAARLGAELRNASLRVFGLRAEDEGNYTCQFVTFPQRSRSVDIWLRVLGGGGSGGGGSGGGGSKAMHVAQPAVVFASSHGIASFVCEYASPWKATEVRVTVLRQADSQVTEVCAATYMTGNELTFLDDSICTGTSSGNQVNLTIQGLRAMDTGLYICKVEQMYPPPYLLGIGNGTQIYVIDPEPCPDSDGSGGGGSEPKSSDKTHTCPPCPAPEAEGAPSVFLFPPKPKDTLMISRTPEVTCVVVDVSHEDPEVKFNWYVDGVEVHNAKTKPREEQYNSTYRVVSVLTVLHQDWLNGKEYKCKVSNKALPAPIEKTISKAKGQPREPQVYTLPPSRDELTKNQVSLTCLVKGFYPSDIAVEWESNGQPENNYKTTPPVLDSDGSFFLYSKLTVDKSRWQQGNVFSCSVMHEALHNHYTQKSLSLSPG
B10: CTLA-4 3060-CD155 665-Fc (Fc fusion)
chain: KAMHVAQPAVVFASSHGIASFVCEYASPWKATEVRVTVLRQADSQVTEVCAATYMTGNELTFLDDSICTGTSSGNQVNLTIQGLRAMDTGLYICKVEQMYPPPYLLGIGNGTQIYVIDPEPCPDSDGGGGSGGGGSGGGGSWPPPGTGDVVVQAPTQVSGFLGDSVTLPCYLQVPNMEVTHVSQLTWARHGESGSMAVFHQTQGPWYAESKRLEFVAARLGAELRNASLRVFGLRAEDEGNYTCQFVTFPQRSRSVDIWLRVLGSGGGGSEPKSSDKTHTCPPCPAPEAEGAPSVFLFPPKPKDTLMISRTPEVTCVVVDVSHEDPEVKFNWYVDGVEVHNAKTKPREEQYNSTYRVVSVLTVLHQDWLNGKEYKCKVSNKALPAPIEKTISKAKGQPREPQVYTLPPSRDELTKNQVSLTCLVKGFYPSDIAVEWESNGQPENNYKTTPPVLDSDGSFFLYSKLTVDKSRWQQGNVFSCSVMHEALHNHYTQKSLSLSPG

Target: PD-1 (human, UniProt Q15116)
Assay: cell-based or functional assay

| 100 nM IFN-gamma (pg/mL), SEB assay [pg/mL] | Binder |
| --- | --- |
| 16200 | B1 |
| 8620 | B2 |
| 9820 | B3 |
| 6030 | B4 |
| 7350 | B5 |
| 5440 | B6 |

Target: T1, TIGIT
Assay: cell-based or functional assay

| 100 nM IFN-gamma (pg/mL), SEB assay [pg/mL] | Binder |
| --- | --- |
| 10300 | B7 |
| 5850 | B8 |
| 4310 | B9 |
| 1900 | B10 |
| 7350 | B5 |

Target: CD2 (human, UniProt P06729)
Assay: cell-based or functional assay

| 100 nM IFN-gamma (pg/mL), SEB assay [pg/mL] | Binder |
| --- | --- |
| 16200 | B1 |
| 5850 | B8 |
| 8620 | B2 |
| 9820 | B3 |
| 6030 | B4 |
| 5440 | B6 |

Target: T2, human CD86
Assay: cell-based or functional assay

| 100 nM IFN-gamma (pg/mL), SEB assay [pg/mL] | Binder |
| --- | --- |
| 4310 | B9 |
| 1900 | B10 |
| 7350 | B5 |
